What was measured:
[1] = target: PH-YFP (isolated PLCδ1 PH domain linked to a yellow fluorescent protein variant that lacks the A206K mutation) (UniProt P51178); assay: fluorescence fluctuation spectroscopy (photon counting histogram); PH-YFP bound to POPC:PI(4,5)P2 (95:5) GUVs, 100 μM Ca2+; two-brightness population model
[2] = target: PH-YFP (isolated PLCδ1 PH domain linked to a yellow fluorescent protein variant that lacks the A206K mutation) (UniProt P51178); assay: fluorescence fluctuation spectroscopy (photon counting histogram); PH-YFP bound to POPC:PI(4,5)P2 (95:5) GUVs, in the presence of Ca2+ (20, 50 and 100 μM taken together, on average); two-brightness population model
[3] = target: PH-YFP (isolated PLCδ1 PH domain linked to a yellow fluorescent protein variant that lacks the A206K mutation) (UniProt P51178); assay: fluorescence fluctuation spectroscopy (photon counting histogram); PH-YFP bound to POPC:PI(4,5)P2 (95:5) GUVs, 20 μM Ca2+; two-brightness population model
[4] = target: PH-YFP (isolated PLCδ1 PH domain linked to a yellow fluorescent protein variant that lacks the A206K mutation) (UniProt P51178); assay: fluorescence fluctuation spectroscopy (photon counting histogram); PH-YFP bound to POPC:PI(4,5)P2 (95:5) GUVs, 5 mM EDTA (0 μM Ca2+); two-brightness population model
[5] = target: PH-YFP (isolated PLCδ1 PH domain linked to a yellow fluorescent protein variant that lacks the A206K mutation) (UniProt P51178); assay: fluorescence fluctuation spectroscopy (photon counting histogram); PH-YFP bound to POPC:PI(4,5)P2 (95:5) GUVs, 50 μM Ca2+; two-brightness population model

Substance: PH-YFP (isolated PLCδ1 PH domain linked to a yellow fluorescent protein variant that lacks the A206K mutation) (from UniProt P51178 21-130)
- F1 (Monomeric Population), fraction weighed by brightness [1]: 86.5%
- F2 (Oligomeric Population), fraction weighed by brightness [1]: 13.5%
- fraction of particles in the second (oligomeric) population [2]: < 5%
- F1 (Monomeric Population), fraction weighed by brightness [3]: 99.3%
- F2 (Oligomeric Population), fraction weighed by brightness [3]: 0.7%
- F1 (Monomeric Population), fraction weighed by brightness [4]: 71.3%
- F2 (Oligomeric Population), fraction weighed by brightness [4]: 28.7%
- brightness of the second population relative to the lower brightness (monomer) component [4]: 2.3 fold
- stoichiometry N [4]: 2
- F1 (Monomeric Population), fraction weighed by brightness [5]: 82.5%
- F2 (Oligomeric Population), fraction weighed by brightness [5]: 17.5%

From paper PMC9312469
